Results from US20230365684A1 (Janssen / Centocor, published 2023).
Substitutions are numbered along the chain they refer to.

Experiments:
[1] = target: T1, human CD33 (full length ECD), recombinant (human, UniProt P20138 18-259); assay: SPR (Biacore 8K), vHH-mono-Fc captured by anti-human Fc, antigen in solution
T1 construct: extracellular domain; Tag or HSA fusion partner unknown; also called hu CD33 (FL ECD); hCD33-FL ECD
Protocol: (§1) The binding affinity of anti-CD33 antibodies and Llama vHHs to the recombinant human CD33 (FL ECD or IgC2 domain) was determined by surface plasmon resonance (SPR) using Biacore 8K instrument. […] The association and dissociation were monitored for 2 and 30 minutes, respectively, using a flow rate of 50 μL/min. Raw binding data was referenced by subtracting the analyte binding signals from blanks and analyzed using a 1:1 Langmuir binding model using the Biacore software to obtain the kinetics which were used to calculate the binding affinity.
(§2) The anti-CD33 Llama vHHs on a mono-Fc backbone were captured using an anti-human Fc antibody and the antigens were injected in solution.

[2] = target: T2, human CD33 IgC2 domain, recombinant (human, UniProt P20138 136-259); assay: as above
T2 construct: domain: IgC2; also called hu CD33 (IgC2); hCD33-IgC2
T2 sequence (P20138 136-259 limits assumed): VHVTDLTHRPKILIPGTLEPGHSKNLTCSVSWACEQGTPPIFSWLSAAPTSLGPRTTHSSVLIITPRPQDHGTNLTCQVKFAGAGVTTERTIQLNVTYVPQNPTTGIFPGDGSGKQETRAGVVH
Protocol: as §1, §2

[3] = target: T1, human CD33 (full length ECD), …; assay: SPR, Biacore 8K, 25 °C, vHH-mono-Fc captured by anti-Fc antibody, CD33-hu-FL injected as analyte, 1:1 binding model [contd]
Protocol: as §1, §2

[4] = target: T2, human CD33 IgC2 domain, recombinant; assay: SPR, Biacore 8K, 25 °C, vHH-mono-Fc captured by anti-Fc antibody, CD33-hu-domain injected as analyte, 1:1 binding model [contd]
Protocol: as §1, §2

[5] = target: T3, human CD33 on cells (MOLM-13, Kasumi-1, OCI-AML-3, Kasumi-3) (human, UniProt P20138 18-364); assay: flow cytometry on MOLM-13 cells, 4 °C, detection with PE goat F(ab')2 anti-human IgG-Fc
T3 construct: whole, on cells; also called CD33 expressing cells; CD33+ cell lines
T3 sequence (P20138 18-364): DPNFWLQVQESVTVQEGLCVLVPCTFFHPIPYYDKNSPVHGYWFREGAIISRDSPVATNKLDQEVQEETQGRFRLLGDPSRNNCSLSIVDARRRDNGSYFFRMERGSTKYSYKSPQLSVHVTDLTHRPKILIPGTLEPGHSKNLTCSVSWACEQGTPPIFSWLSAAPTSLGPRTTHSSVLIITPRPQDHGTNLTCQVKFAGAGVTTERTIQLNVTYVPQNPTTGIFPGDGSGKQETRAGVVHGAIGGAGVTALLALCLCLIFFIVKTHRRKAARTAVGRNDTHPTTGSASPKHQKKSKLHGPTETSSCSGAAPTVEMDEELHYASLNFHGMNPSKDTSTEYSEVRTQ

[6] = target: T3, human CD33 on cells (MOLM-13, Kasumi-1, …); assay: flow cytometry on OCI-AML-3 cells, 4 °C, serial dilutions of the antibody
Protocol: (§3) Cells were harvested, washed once with PBS and then stained with the fixable viability dye at room temperature for 30 min. Following incubation, cells were washed twice with FACS buffer (PBS+2% FBS). Cells were then used for binding assay with test antibodies. 100,000 cells were stained with the test antibodies in a 100 ul staining volume. Antibodies for staining were diluted in FACS buffer and incubated with the cells for 40 mins on ice, followed by washing 2X with FACS buffer. Test antibodies were then detected using the PE conjugated Goat F(ab′)2 Anti-Human IgG-Fc (ab98596; Abcam) for 40 minutes on ice. Following washing, data was acquired on the Novocyte flow cytometer (ACEA). Cells were gated on FSC/SSC, followed by live cell gating and doublet discrimination. Data was analyzed using Flow Jo (BD).
(§4) Median fluorescence intensity values were used to plot a 4-parameter non-linear regression analysis curve after subtracting the MFI of the secondary only sample.
(§5) The binding EC₅₀ values of CD33 antibodies to high (MOLM-13), medium (Kasumi-1) and low (OCI-AML-3) cell lines were assayed. Binding was carried out at 4° C. with serial dilutions of the antibody.

[7] = target: T1, human CD33 (full length ECD), …; assay: SPR (Biacore 8K), antibody captured by anti-human Fc, antigen in solution
Protocol: (§6) Affinities (KD) for the interaction of anti-CD33 antibodies human CD33 (full length ECD and IgC2 domain) were obtained by SPR. The anti-CD33 antibodies were captured using an anti-human Fc antibody and the antigens were injected in solution.
as §1

[8] = target: T2, human CD33 IgC2 domain, recombinant; assay: as above
Protocol: as §6, §1

[9] = target: T3, human CD33 on cells (MOLM-13, Kasumi-1, …); assay: flow cytometry on MOLM-13 cells, 4 °C, serial dilutions of the antibody
Protocol: as §3, §4, §5

[10] = target: T3, human CD33 on cells (MOLM-13, Kasumi-1, …); assay: flow cytometry on Kasumi-1 cells, 4 °C, serial dilutions of the antibody
Protocol: as §3, §4, §5

T1 sequence (P20138 18-259): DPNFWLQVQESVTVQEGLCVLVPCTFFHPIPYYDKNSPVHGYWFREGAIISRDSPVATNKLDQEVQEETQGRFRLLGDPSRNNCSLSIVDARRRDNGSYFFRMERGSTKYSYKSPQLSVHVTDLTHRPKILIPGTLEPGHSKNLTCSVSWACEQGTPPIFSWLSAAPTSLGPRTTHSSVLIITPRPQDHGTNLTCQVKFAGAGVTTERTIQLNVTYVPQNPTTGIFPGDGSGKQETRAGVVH

B1: C33B1783 (llama vHH on mono-Fc backbone) (Fc fusion)
chain: EVQLVESGGGLVQAGGSLRLSCAASGFTFDDYAVGWFRQVPGKEREGVSCISSSDGATYYADSVKGRFTISSDNAKNTVYLQMNSLKPEDTAVYYCTAIIVRGSGWERAAAACRYEYSYWGQGTQVTVSS
notes: vHH is placed first; not shown: mono-Fc backbone
[1]
  Kd: 0.0859 nM

B2: C33B1782 (llama vHH on mono-Fc backbone) (Fc fusion)
chain: B1 chain with V40A, V48I, S72T, V79A, Y80F, I99V, S104T, S118A
notes: not shown: mono-Fc backbone
[1]
  Kd: 0.206 nM

B3: C33B1788 (llama vHH on mono-Fc backbone) (Fc fusion)
chain: QVQLVESGGGLVQPGGSLRLSCAVFGFSLSDYAIGWFRQAPGKEREKVSCISESDGRTYLSDSVKSRFTISRDNGKNTVYLQMNNLKPDDTGVYYCATVDQAISESSYHCEKGFGSWGQGTQVTVSS
notes: not shown: mono-Fc backbone
[1]
  Kd: 0.707 nM
[2]
  Kd: 4.34 nM

B4: C33B1789 (llama vHH on mono-Fc backbone) (Fc fusion)
chain: B3 chain with P14A
notes: not shown: mono-Fc backbone
[1]
  Kd: 0.67 nM
[2]
  Kd: 3.03 nM

B5: C33B1785 (llama vHH on mono-Fc backbone) (Fc fusion)
chain: B3 chain with L11S
notes: not shown: mono-Fc backbone
[3]
  koff: 0.000928 s⁻¹
  kon: 1.4e+06 M⁻¹ s⁻¹
[4]
  koff: 0.0034 s⁻¹
  kon: 1.03e+06 M⁻¹ s⁻¹
[1]
  Kd: 0.661 nM
[2]
  Kd: 3.31 nM

B6: C33B1787 (llama vHH on mono-Fc backbone) (Fc fusion)
chain: EVQLVESGGGLVQAGGSLRLSCAASGFTFDDYAIGWFRQAPGKEREGVSCISSSDGSTYYVDSVKGRFTISSDNAKNTVYLQMNSLKPEDTAVYYCTALIIMYGSGSERAAAACRYKYEYWGQGTQVTVSS
notes: not shown: mono-Fc backbone
[1]
  Kd: 0.792 nM

B7: C33B1478 (antibody, V domains shown)
VH: EVQLVESGGGLVQPGGSLKVSCEASGFTFSVSAIHWVRQASGKGLEWIGRIRSKGNSYATAYDVSVKGRFTISRDDSKNTAYLQMDSLKTEDTAVYYCTRHNDKWNYYGLDVWGQGTTVTVSS
VL: DIVMTQSPLSLPVTPGEPASISCKSSQSLLFSNGYKFLDWYLQRPGQSPQLLIYLGSYRASGVPDRFSGSGSGTDFTLKISRVEAEDVGLYYCMQALQTPPTFGGGTKVEIK
modifications: In the FIG. 3 assay the antibody carried Alexa Fluor 647 (p-1610); the site is not given and the letters do not carry it.
notes: also called sCD33B1478
[5]
  binding result: binds

B8: C33B1476 (antibody, V domains shown)
VH: B7 VH with D63N
VL: B7 VL
notes: also called sCD33B1476
[6]
  EC50: 0.8 nM

B9: C33B1484 (antibody, V domains shown)
VH: B7 VH with S32F
VL: B7 VL with G105Q
notes: also called sCD33B1484
[5]
  binding result: binds

B10: C33B1495 (antibody, V domains shown)
VH: EVQLVESGGGLVQPGGSLRLSCTASGFTFSSYWMSWVRQAPGKGLDWVANIKRDGSEKHYVDSVKGRFTISRDNAKNSLYLQMNSLRAEDSAVYYCTRDYGYFDYWGQGTLVTVSS
VL: DIQLTQSPSFLSASVGDRVTITCRASQGISSYLAWYQQKPGKAPKVLIYAASTLQSGVPSRFSGSGSGTEFTLTISSLQPEDFATYFCQQLNSYPVTFGGGTKVEIK
notes: also called sCD33B1495
[5]
  binding result: binds

B11: C33B1607 (antibody, V domains shown)
VH: EVQLQQSGPELVKPGSSVKISCKASGYTFTDYNINWVKQSHGKNLEWIGTINPNNGVTFYNQRFKGQATLTVDKSSSTAYMELRSLTSEDSAVYYCSRDGYDTYYAMDYWGQGTTLTVSS
VL: DIVMTQSHKFMSTSVGDRVSITCKASQDVRTAEAWYQQKPGQSPKLLIYSASNRYTGVPDRFTGSGSGTDFTFTISSVQAEDLAVYYCQQYYTTPRTFGGGTKLEIK
[7]
  Kd: 1.49 nM
[8]
  binding result: no binding (tested: 40 nM-1.6 nM CD33 antigen)

B12: C33B1781 (llama vHH on mono-Fc backbone) (Fc fusion)
chain: EVQVVESGGGLVQGGGSLRLSCAASGSIFSINAMGWYHQAPGKQRELVARITGGGATDYVDSVKGRFTISLDSAKSTVYLQMNSLKPEDTAVYHCYADLVTRVGSDLLYDDYWGQGTQVTVSS
notes: not shown: mono-Fc backbone
[1]
  Kd: 2.21 nM
[2]
  Kd: 0.0559 nM

B13: C33B1601 (antibody, V domains shown)
VH: EVQLVESGGGLVRPGGSLKLSCAASGFTFSNYAMSWVRQTPEKRLEWVAGISNSGYSLYYPDTLKGRFTISRDNARNTLYLQMISLRSEDTAMYYCARDGGSYPYAMDYWGHGTSVTVSS
VL: DIVMTQSQKFMSTSVGDRVSVTCKASQNVGTYVAWYQQKPGHSPKALIYSASYRYSGVPDRFTGSGSGTDFTLTISNVQSEDLADYFCQQYKSYPLTFGAGTKLELK
[7]
  Kd: 1.1 nM
[8]
  Kd: 6.8 nM

B14: C33B1517 (antibody, V domains shown)
VH: QVQLQESGPGLVKPSETLSLTCSVSGASIRNYYWSWIRQTAGKGLEWLGHIYSTGNIHYNPSLKSRVTMSVDTSNNQFSLKLRSVTAADTAVYYCARDNGAALFDYWGQGTLVTVSS
VL: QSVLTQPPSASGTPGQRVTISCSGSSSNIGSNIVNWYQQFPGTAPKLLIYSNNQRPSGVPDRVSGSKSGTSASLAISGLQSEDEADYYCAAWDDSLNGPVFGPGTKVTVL
[7]
  Kd: 4.44 nM
[8]
  binding result: no binding (tested: 40 nM-1.6 nM CD33 antigen)
[9]
  EC50: 10.6 nM
[6]
  EC50: 1.4 nM

B15: C33B1786 (llama vHH on mono-Fc backbone) (Fc fusion)
chain: EVQVVESGGGVVQSGGSLTLSCEASESILSFSTMDWFRQAPGKEREGVSCIRPRYSTTTHADSIKGRFKMYSDNAKNTIYLHMNSLQPEDTAVYYCHMYHYSSQYWGQGTQVTVSS
notes: not shown: mono-Fc backbone
[1]
  Kd: 0.357 nM

B16: C33B1474 (antibody, V domains shown)
VH: QVQLVESGGGLVQPGGSLRLSCAASGFTFSSFGMSWVRQAPGKGLEWVANIKRDGSEKYYVDSVKGRFTISRDNAKNSLFLQMSSLRAEDTAVYYCVRDYGYFDFWGQGTLVTVSS
VL: DIQMTQSPSSLSASVGDRVTITCQASQAISNYLNWYQQKPGKAPKLLIYDASNLETGVPSRFSGSGSGTDFTFTISSLQPEDFSTYFCQHYDNLPYTFGQGTKLEIK
[7]
  Kd: 2.47 nM
[8]
  Kd: 3.99 nM
[9]
  EC50: 78.4 nM
[6]
  EC50: 1.26 nM

B17: C33B931 (antibody, V domains shown)
VH: not shown
VL: SYELTQPPSVSVSPGQTASITCSGDKLGSKFASWYQQKPGQSPVLVIYQDSKRPSGIPERFSGSNSGNTATLTISGTQAMDEADYYCQAWDSSTVVFGGGTKLTVL
[7]
  Kd: 0.4 nM

B18: C33B919 (antibody, V domains shown)
VH: QVQLVESGGGVVQPGRSLRLSCAASGFTFSSYGMHWVRQAPGKGLEWVAVISYDGSNKYYADSVKGRFTISRDNSKNTLYLQMNSLRAEDTAVYYCAKDFRSFDWLPPDSTSYYGMDVWGQGTTVTVSS
VL: B17 VL with S29D, F31Y, A32V, L45V, Y48H, S51R, S66F
[7]
  Kd: 0.5 nM
[8]
  binding result: no binding (tested: 40 nM-1.6 nM CD33 antigen)

B19: C33B125 (antibody, V domains shown)
VH: B18 VH
VL: B17 VL with S29D, F31Y, A32V, S33C, L45V, Y48H, S51R, S66F
[7]
  Kd: 0.1 nM
[8]
  Kd: > 10 nM

B20: C33B937 (antibody, V domains shown)
VH: B18 VH with A23V, D90G, T111A, Y114H
VL: B17 VL with S29D, F31Y, S51G, S66F, T69K, S92R, S93N
[7]
  Kd: 0.3 nM
[8]
  Kd: 56 nM

B21: C33B933 (antibody, V domains shown)
VH: B18 VH with A40S, N77S, F103L, Y114D
VL: B17 VL with D25H, S29D, F31Y, L45V, Q49K, S66F
[7]
  Kd: 0.5 nM

B22: C33B1784 (llama vHH on mono-Fc backbone) (Fc fusion)
chain: EVQLVESGGGLVQAGGSLRLSCAASGRTFSTYVMGWFRQAPGQERELVAAIVSGRNPTYADSVKSRFTISRDNAKNTIYLHMNSLQPEDTAVYYCHMYHYSSQYWGQGTQVTVSS
notes: not shown: mono-Fc backbone
[1]
  binding result: binds

B23: C33B1522 (antibody, V domains shown)
VH: QVQLQESGPGLVKPSETLSLTCTVSGGSISSYYWGWIRQPPGKGLEWIGYIYYSGSTNYNPSLKSRVTISVDTSKNQFSLKLSSVTAADTAVYYCARMWEILGFDPWGQGTLVTVS
VL: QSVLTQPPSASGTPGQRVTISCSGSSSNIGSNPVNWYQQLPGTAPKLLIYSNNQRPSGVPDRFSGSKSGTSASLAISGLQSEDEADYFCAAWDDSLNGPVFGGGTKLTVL
[7]
  Kd: > 10 nM
[8]
  binding result: no binding (tested: 40 nM-1.6 nM CD33 antigen)
[9]
  EC50: 32.7 nM
[10]
  EC50: 73.4 nM
